FireProtDB (doi:10.1021/bi020461s)

B1: Glutamate dehydrogenase, P96110 (parent)
chain: MPEKSLYEMAVEQFNRAASLMDLESDLAEVLRRPKRVLIVEFPVRMDDGHVEVFTGYRVQHNVARGPAKGGIRYHPDVTLDEVKALAFWMTWKTAVMNLPFGGGKGGVRVDPKKLSRNELERLSRRFFSEIQVIIGPYNDIPAPDVNTNADVMAWYMDTYSMNVGHTVLGIVTGKPVELGGSKGREEATGRGVKVCAGLAMDVLGIDPKKATVAVQGFGNVGQFAALLISQELGSKVVAVSDSRGGIYNPEGFDVEELIRYKKEHGTVVTYPKGERITNEELLELDVDILVPAALEGAIHAGNAERIKAKAVVEGANGPTTPEADEILSRRGILVVPDILANAGGVTVSYFEWVQDLQSFFWDLDQVRNALEKMMKGAFNDVMKVKEKYNVDMRTAAYILAIDRVAYATKKRGIYP

Variants of: B1
Conditions: Thermotoga maritima (strain ATCC 43589 / DSM 3109 / JCM 10099 / NBRC 100826 / MSB8), pH 7, CD, sodium phosphate 20 mM, reversible: yes, structure 1B26, whole UniProt chain shown

Row | Variant | ddG of mutation (higher = less stable) (20 °C, GdnHCl) [kcal/mol] | denaturant m value (20 °C, GdnHCl) [kcal/mol/M] | denaturant midpoint (higher = more stable) (20 °C, GdnHCl) [M] | unfolding free energy (20 °C, GdnHCl) [kcal/mol] | ddG of mutation (higher = less stable) (69.5 °C, Thermal) [kcal/mol] | Tm (Thermal) [°C] | change of melting temperature, mutant - wild type (higher = more stable) (Thermal) [°C] | unfolding enthalpy (van 't Hoff) (Thermal) [kcal/mol] | ddG of mutation (higher = less stable) (20 °C, Urea) [kcal/mol] | denaturant m value (20 °C, Urea) [kcal/mol/M] | denaturant midpoint (higher = more stable) (20 °C, Urea) [M] | unfolding free energy (20 °C, Urea) [kcal/mol]
1 | MPEKSLYEMAVEQFNRAASLMDLESDLAEVLRRPKRVLIVEFPVRMDDGHVEVFTGYRVQHNVARGPAKGGIRYHPDVTLDEVKALAFWMTWKTAVMNLPFGGGKGGVRVDPKKLSRNELERLSRRFFSEIQVIIGPYNDIPAPDVNTNADVMAWYMDTYSMNVGHTVLGIVTGKPVELGGSKGREEATGRGVAVCAGLAMDVLGIDPKKATVAVQGFGNVGQFAALLISQELGSKVVAVSDSRGGIYNPEGFDVEELIRYKKEHGTVVTYPKGERITNEELLELDVDILVPAALEGAIHAGNAERIKAKAVVEGANGPTTPEADEILSRRGILVVPDILANAGGVTVSYFEWVQDLQSFFWDLDQVRNALEKMMKGAFNDVMKVKEKYNVDMRTAAYILAIDRVAYATKKRGIYP [K194A] | -0.98 | 2.74 | 2.06 | 6.1 | -0.23 | 71 | 1.5 | 53.8 | – | – | – | –
2 | MPEKSLYEMAVEQFNRAASLMDLESDLAEVLRRPKRVLIVEFPVRMDDGHVEVFTGYRVQHNVARGPAKGGIRYHPDVTLDEVKALAFWMTWKTAVMNLPFGGGKGGVRVDPKKLSRNELERLSRRFFSEIQVIIGPYNDIPAPDVNTNADVMAWYMDTYSMNVGHTVLGIVTGKPVELGGSKGREEATGAGVAVCAGLAMDVLGIDPKKATVAVQGFGNVGQFAALLISQALGSKVVAVSDSRGGIYNPEGFDVEELIRYKKEHGTVVTYPKGERITNEELLELDVDILVPAALEGAIHAGNAERIKAKAVVEGANGPTTPEADEILSRRGILVVPDILANAGGVTVSYFEWVQDLQSFFWDLDQVRNALEKMMKGAFNDVMKVKEKYNVDMRTAAYILAIDRVAYATKKRGIYP [R191A E232A K194A] | -0.03 | 2.72 | 1.74 | 5.15 | -0.2 | 70.8 | 1.3 | 50.6 | -0.04 | 1.42 | 3.35 | 4.89
3 | MPEKSLYEMAVEQFNRAASLMDLESDLAEVLRRPKRVLIVEFPVRMDDGHVEVFTGYRVQHNVARGPAKGGIRYHPDVTLDEVKALAFWMTWKTAVMNLPFGGGKGGVRVDPKKLSRNELERLSRRFFSEIQVIIGPYNDIPAPDVNTNADVMAWYMDTYSMNVGHTVLGIVTGKPVELGGSKGREEATGAGVKVCAGLAMDVLGIDPKKATVAVQGFGNVGQFAALLISQELGSKVVAVSDSRGGIYNPEGFDVEELIRYKKEHGTVVTYPKGERITNEELLELDVDILVPAALEGAIHAGNAERIKAKAVVEGANGPTTPEADEILSRRGILVVPDILANAGGVTVSYFEWVQDLQSFFWDLDQVRNALEKMMKGAFNDVMKVKEKYNVDMRTAAYILAIDRVAYATKKRGIYP [R191A] | 0.41 | 2.63 | 1.59 | 4.71 | 0.34 | 67.3 | -2.2 | 49.5 | 0.32 | 1.7 | 3.1 | 4.53
4 | MPEKSLYEMAVEQFNRAASLMDLESDLAEVLRRPKRVLIVEFPVRMDDGHVEVFTGYRVQHNVARGPAKGGIRYHPDVTLDEVKALAFWMTWKTAVMNLPFGGGKGGVRVDPKKLSRNELERLSRRFFSEIQVIIGPYNDIPAPDVNTNADVMAWYMDTYSMNVGHTVLGIVTGKPVELGGSKGREEATGAGVKVCAGLAMDVLGIDPKKATVAVQGFGNVGQFAALLISQALGSKVVAVSDSRGGIYNPEGFDVEELIRYKKEHGTVVTYPKGERITNEELLELDVDILVPAALEGAIHAGNAERIKAKAVVEGANGPTTPEADEILSRRGILVVPDILANAGGVTVSYFEWVQDLQSFFWDLDQVRNALEKMMKGAFNDVMKVKEKYNVDMRTAAYILAIDRVAYATKKRGIYP [R191A E232A] | 0.86 | 3.08 | 1.44 | 4.26 | 0.15 | 68.5 | -1 | 44.6 | 0.53 | 1.53 | 2.96 | 4.32
